Results taken from patent publication US20250340857A1 (SEISMIC THERAPEUTIC, published 2025).

Molecular target: Human IgE antibody (human)
Experiment: cell-based or functional assay

Binder | EC50 CE-SDS IgE [nM] | EC50 MSD IgE [nM]
FP140 (Fc fusion) DKTHTCPPCPAPEAAGAPSVFLFPPKPKDTLMISRTPEVTCVVVDVSHEDPEVKFNWYVDGVEVHNAKTKPREEQQNSTYRVVSVLTVLHQDWLNGKEYKCKVSNKALKAPIEKTISKAKGQPREPQVYTLPPSRDELTKNQVSLTCLVKGFYPSDIAVEWESNGQPENNYKTTPPVLDSDGSFFLYSKLTVDKSRWQQGNVFSCSVMHEALHNHYTQKSLSLSPGGSSAPGSSAPGSSAPTALGRRKAEDRIKETLWADGVKIDEKDFEHIKSSHEDYFAVEYGKGSGYYDVNKKMDSEDTALCVGAVVTNMFHWWVDQNRENIEKFKKQDPENNGVMKFEGVKEATVDELNEFYRDNRDNYADQSRFFDLIKKHFGNKALNPEELFELYFNGFYYGSSHRYIEDNEPAQNNLFSKVLENNKLLNPERSYGIDGFSNNVINALKSHKVLGLVYTTPLRYRHIISMWGADIDQDGKVKAIYVTDSDDREITFNDNSKRRIGMIRYDVLVDDNGNIRFTGKGATHKEEGAIYAGLYSLSRGDEVWEDYFKKYPEVQENL | 0.43 | 1.35
FP141 (Fc fusion) chain 1: DKTHTCPPCPAPEAAGAPSVFLFPPKPKDTLMISRTPEVTCVVVDVSHEDPEVKFNWYVDGVEVHNAKTKPREEQQNSTYRVVSVLTVLHQDWLNGKEYKCKVSNKALKAPIEKTISKAKGQPREPQVYTLPPSRDELTKNQVSLWCLVKGFYPSDIAVEWESNGQPENNYKTTPPVLDSDGSFFLYSKLTVDKSRWQQGNVFSCSVMHEALHNHYTQKSLSLSPGGGGSGGGGSGGGGSTALGRRKAEDRIKETLWADGVKIDEKDFEHIKSSHEDYFAVEYGKGSGYYDVNKKMDSEDTALCVGAVVTNMFHWWVDQNRENIEKFKKQDPENNGVMKFEGVKEATVDELNEFYRDNRDNYADQSRFFDLIKKHFGNKALNPEELFELYFNGFYYGSSHRYIEDNEPAQNNLFSKVLENNKLLNPERSYGIDGFSNNVINALKSHKVLGLVYTTPLRYRHIISMWGADIDQDGKVKAIYVTDSDDREITFNDNSKRRIGMIRYDVLVDDNGNIRFTGKGATHKEEGAIYAGLYSLSRGDEVWEDYFKKYPEVQENL chain 2: DKTHTCPPCPAPEAAGAPSVFLFPPKPKDTLMISRTPEVTCVVVDVSHEDPEVKFNWYVDGVEVHNAKTKPREEQQNSTYRVVSVLTVLHQDWLNGKEYKCKVSNKALKAPIEKTISKAKGQPREPQVYTLPPSRDELTKNQVSLSCAVKGFYPSDIAVEWESNGQPENNYKTTPPVLDSDGSFFLVSKLTVDKSRWQQGNVFSCSVMHEALHNHYTQKSLSLSPG | 0.75 | 0.874
FP142 (Fc fusion) chain 1: DKTHTCPPCPAPEAAGAPSVFLFPPKPKDTLMISRTPEVTCVVVDVSHEDPEVKFNWYVDGVEVHNAKTKPREEQQNSTYRVVSVLTVLHQDWLNGKEYKCKVSNKALKAPIEKTISKAKGQPREPQVYTLPPCRDELTKNQVSLWCLVKGFYPSDIAVEWESNGQPENNYKTTPPVLDSDGSFFLYSKLTVDKSRWQQGNVFSCSVMHEALHNHYTQKSLSLSPGGGGSGGGGSGGGGSTALGRRKAEDRIKETLWADGVKIDEKDFEHIKSSHEDYFAVEYGKGSGYYDVNKKMDSEDTALCVGAVVTNMFHWWVDQNRENIEKFKKQDPENNGVMKFEGVKEATVDELNEFYRDNRDNYADQSRFFDLIKKHFGNKALNPEELFELYFNGFYYGSSHRYIEDNEPAQNNLFSKVLENNKLLNPERSYGIDGFSNNVINALKSHKVLGLVYTTPLRYRHIISMWGADIDQDGKVKAIYVTDSDDREITFNDNSKRRIGMIRYDVLVDDNGNIRFTGKGATHKEEGAIYAGLYSLSRGDEVWEDYFKKYPEVQENL chain 2: DKTHTCPPCPAPEAAGAPSVFLFPPKPKDTLMISRTPEVTCVVVDVSHEDPEVKFNWYVDGVEVHNAKTKPREEQQNSTYRVVSVLTVLHQDWLNGKEYKCKVSNKALKAPIEKTISKAKGQPREPQVCTLPPSRDELTKNQVSLSCAVKGFYPSDIAVEWESNGQPENNYKTTPPVLDSDGSFFLVSKLTVDKSRWQQGNVFSCSVMHEALHNHYTQKSLSLSPG | 3.8 | –
FP143 (Fc fusion) DKTHTCPPCPAPEAAGAPSVFLFPPKPKDTLMISRTPEVTCVVVDVSHEDPEVKFNWYVDGVEVHNAKTKPREEQQNSTYRVVSVLTVLHQDWLNGKEYKCKVSNKALKAPIEKTISKAKGQPREPQVYTLPPSRDELTKNQVSLTCLVKGFYPSDIAVEWESNGQPENNYKTTPPVLDSDGSFFLYSKLTVDKSRWQQGNVFSCSVLHEALHSHYTQKSLSLSPGGGGSGGGGSGGGGSTALGRRKAEDRIKETLWADGVKIDEKDFEHIKSSHEDYFAVEYGKGSGYYDVNKKMDSEDTALCVGAVVTNMFHWWVDQNRENIEKFKKQDPENNGVMKFEGVKEATVDELNEFYRDNRDNYADQSRFFDLIKKHFGNKALNPEELFELYFNGFYYGSSHRYIEDNEPAQNNLFSKVLENNKLLNPERSYGIDGFSNNVINALKSHKVLGLVYTTPLRYRHIISMWGADIDQDGKVKAIYVTDSDDREITFNDNSKRRIGMIRYDVLVDDNGNIRFTGKGATHKEEGAIYAGLYSLSRGDEVWEDYFKKYPEVQENL | 0.035 | 1.63
FP144 (Fc fusion) DKTHTCPPCPAPEAAGAPSVFLFPPKPKDTLMISRTPEVTCVVVDVSHEDPEVKFNWYVDGVEVHNAKTKPREEQQNSTYRVVSVLTVDHHDWLNGKEYKCKVSNKALKAPIEKTISKAKGQPREPQVYTLPPSRDELTKNQVSLTCLVKGFYPSDIAVEWESNGQPENNYKTTPPVLDSDGSFFLYSKLTVDKSRWQQGNVFSCSVMHEALHSHYTQKSLSLSPGGGGSGGGGSGGGGSTALGRRKAEDRIKETLWADGVKIDEKDFEHIKSSHEDYFAVEYGKGSGYYDVNKKMDSEDTALCVGAVVTNMFHWWVDQNRENIEKFKKQDPENNGVMKFEGVKEATVDELNEFYRDNRDNYADQSRFFDLIKKHFGNKALNPEELFELYFNGFYYGSSHRYIEDNEPAQNNLFSKVLENNKLLNPERSYGIDGFSNNVINALKSHKVLGLVYTTPLRYRHIISMWGADIDQDGKVKAIYVTDSDDREITFNDNSKRRIGMIRYDVLVDDNGNIRFTGKGATHKEEGAIYAGLYSLSRGDEVWEDYFKKYPEVQENL | 0.66 | –
FP145 (Fc fusion) DKTHTCPPCPAPEAAGAPSVFLFPPKPKDTLMISRTPEVTCVVVDVSHEDPEVKFNWYVDGVEVHNAKTKPREEQQNSTYRVVSVLTVLHQDWLNGKEYKCKVSNKALKAPIEKTISKAKGQPREPQVYTLPPSRDELTKNQVSLTCLVKGFYPSDIAVEWESNGQPENNYKTTPPVLDSDGSFFLYSKLTVDKSRWQQGNVFSCSVMHEALHNHYTQKSLSLSPGGGGSGGGGSGGGGSTALGRRKAEDRIKETLWADGVKIDEKDFEHIKSSHEDYFAVEYGKGSGYYDVNKKMDSEDSALCVGAVVTNMFHWWVDQNRENIEKFKKQDPENNGVMKFEGVKEATVDELNEFYRDNRDNYADQSRFFDLIKKHFGNKALNPEELFELYFNGFYYGSSHRYIEDNEPAQNNLFSKVLENNKLLNPERSYGIDGFSNNVINALKSHKVLGLVYTTPLRYRHIISMWGADIDQDGKVKAIYVTDSDDREITFNDNSKRRIGMIRYDVLVDDNGNIRFTGKGATHKEEGAIYAGLYSLSRGDEVWEDYFKKYPEVQENL | 1.45 | 0.654
FP146 (Fc fusion) DKTHTCPPCPAPEAAGAPSVFLFPPKPKDTLMISRTPEVTCVVVDVSHEDPEVKFNWYVDGVEVHNAKTKPREEQQNSTYRVVSVLTVLHQDWLNGKEYKCKVSNKALKAPIEKTISKAKGQPREPQVYTLPPSRDELTKNQVSLTCLVKGFYPSDIAVEWESNGQPENNYKTTPPVLDSDGSFFLYSKLTVDKSRWQQGNVFSCSVMHEALHNHYTQKSLSLSPGGGGSGGGGSGGGGSTALGRRKAEDRIKETLWADGVKIDEKDFEHIKSSHEDYFAVEYGKGSGYYDVNKKMDSEDTALCVGAVVTNMFHWWVDQNRENIEKFKKQDPENNGVMKFEGVKEATVDELNEFYRDNRDNYADQSRFFDLIKSHFGNKALNPEELFELYFNGFYYGSSHRYIEDNEPAQNNLFSKVLENNKLLNPERSYGIDGFSNNVINALKSHKVLGLVYTTPLRYRHIISMWGADIDQDGKVKAIYVTDSDDREITFNDNSARRIGMIRYDVLVDDNGNIRFTGKGATHKEEGAIYAGLYSLSRGDEVWEDYFKKYPEVQENL | 1.58 | –
FP147 (Fc fusion) DKTHTCPPCPAPEAAGAPSVFLFPPKPKDTLMISRTPEVTCVVVDVSHEDPEVKFNWYVDGVEVHNAKTKPREEQQNSTYRVVSVLTVLHQDWLNGKEYKCKVSNKALKAPIEKTISKAKGQPREPQVYTLPPSRDELTKNQVSLTCLVKGFYPSDIAVEWESNGQPENNYKTTPPVLDSDGSFFLYSKLTVDKSRWQQGNVFSCSVMHEALHNHYTQKSLSLSPGGGGSGGGGSGGGGSTALGRRKAEDRIKETLWADGVKIDEKDFEHIKSSHEDYFAVEYGKGSGYYDVNKKMDSEDTALCVGAVVTNMFHWWVDQNRENIEKFKKQDPENNGVMKFEGVKEATVDELNEFYRDNRDNYADQSRFFDLIKKHFGNKALNPEELFELYFNGFYYGSSQRYIEDNEPAQNNLFSKVLENNKLLNPERSYGIDGFSNNVINALKSHKVLGLVYTTPLEYRHIISMWGADIDQDGKVKAIYVTDSDDREITFNDNSKRRIGMIRYDVLVDDNGNIRFTGKGATHKEEGAIYAGLYSLSRGDEVWEDYFKKYPEVQENL | 3.1 | –
FP149 (Fc fusion) DKTHTCPPCPAPEAAGAPSVFLFPPKPKDTLMISRTPEVTCVVVDVSHEDPEVKFNWYVDGVEVHNAKTKPREEQQNSTYRVVSVLTVLHQDWLNGKEYKCKVSNKALKAPIEKTISKAKGQPREPQVYTLPPSRDELTKNQVSLTCLVKGFYPSDIAVEWESNGQPENNYKTTPPVLDSDGSFFLYSKLTVDKSRWQQGNVFSCSVMHEALHNHYTQKSLSLSPGGGGSGGGGSGGGGSTALGRRKAEDRIKETLWADGVKIDEKDFEHIKSSHEDYFAVEYGKGSGYYDVNKKMDSEDTALCVGAVVTNMFHWWVDQNRENIEKFKKQDPENNGVMKFEGVKEATVDELNEFYRDNRDNYADQSRFFDLIKKHFGNKALNPEELFELYFNGFYYGSSHRYIEDNEPAQNNLFSKVLENNKLLNPERSYGIDGFSNNVINALKSHKVLGLVYTTPLRYRHIISMWGADIDQDGKVKAIYVTDSDDREITFNDNSKRRIGMIRYDVLVDKNGNIRFTGKGATHKEEGAIYAGLYSLSRGDEVWEDYFKKYPEVQENL | 0.19 | 0.708
